According to publication PMC2978731 (PLoS Pathogens, 2010):

Experiments:
[1] = molecular target: T1, 5-Helix (tag-less version) (HIV-1 group M subtype B, HXB2 (gp41 …)); test: ITC; conditions: both partners purified
T1 construct: source: E. coli, purified from the insoluble fraction under denaturing conditions (Superdex-200, reverse-phase HPLC)

[2] = molecular target: T1, 5-Helix (tag-less version); test: cell-based or functional assay
[3] = molecular target: T1, 5-Helix (tag-less version); test: ITC; conditions: both partners purified; remark: listed apart in the source

B1: Fab D5 (Fab, V domains shown)
VH: QVQLVQSGAEVRKPGASVKVSCKASGDTFSSYAISWVRQAPGQGLEWMGGIIPIFGTANYAQAFQGRVTITANESTSTAYMELSSLRSEDTAIYYCARDNPTLLGSDYWGAGTLVTVSS
VL: DIQMTQSPSTLSASIGDRVTITCRASEGIYHWLAWYQQKPGKAPKLLIYKASSLASGAPSRFSGSGSGTDFTLTISSLQPDDFATYYCQQYSNYPLTFGGGTKLEIK
notes: also called D5 (Fab format); D5 antibody; source: provided by Joseph Joyce (Merck Research Laboratories)
[1]
  Kd: ~10 nM
[2]
  HIV-1 neutralization IC50, Env-pseudotyped virus, 89.6 Env: 890 nM
  HIV-1 neutralization IC50, Env-pseudotyped virus, HXB2 Env: 300 nM
  HIV-1 neutralization IC50, Env-pseudotyped virus, JR CSF Env: 640 nM
  HIV-1 neutralization IC50, Env-pseudotyped virus, SF162 Env: 1300 nM

B2: IgG D5 (antibody, V domains shown)
VH: B1 VH
VL: B1 VL
notes: also called D5 monoclonal antibody; D5 IgG; source: provided by Joseph Joyce (Merck Research Laboratories); copies: 2 + 2
[3]
  stoichiometry N: 2 5-Helix per D5 IgG
[1]
  Kd: < 20 nM
[2]
  HIV-1 neutralization IC50, Env-pseudotyped virus, 89.6 Env: 2240 nM
  HIV-1 neutralization IC50, Env-pseudotyped virus, HXB2 Env: 230 nM
  HIV-1 neutralization IC50, Env-pseudotyped virus, JR CSF Env: 640 nM
  HIV-1 neutralization IC50, Env-pseudotyped virus, SF162 Env: 940 nM
